Experimental findings from patent US20170258835A1 (University of Pennsylvania, published 2017) are described below.

B1: M708.CD19 bi-specific antibody (bispecific antibody)
chain: DIQMTQSPSSLSASVGDRVTITCRASKSVSTSGYSFMHWYQQKPGKAPKLLIYVGSRLDYGVPSRFSGSGSGTDFTLTISSLQPEDFATYYCQHSRELPWTFGQGTKVEIKGGGGSGGGGSGGGGSEVQLLESGGGLVQPGGSLRLSCAASGFTFSSYTMSWVRQAPGKGLEWVSVIDHGGGSTHYPDSVKGRFTISRDNSKNTLYLQMNSLRAEDTAVYYCARHRGNPFDYWGQGTLVTVSSGGGGSDIQMTQTTSSLSASLGDRVTISCRASQDISKYLNWYQQKPDGTVKLLIYHTSRLHSGVPSRFSGSGSGTDYSLTISNLEQEDIATYFCQQGNTLPYTFGGGTKLEITGGGGSGGGGSGGGGSEVKLQESGPGLVAPSQSLSVTCTVSGVSLPDYGVSWIRQPPRKGLEWLGVIWGSETTYYNSALKSRLTIIKDNSKSQVFLKMNSLQTDDTAIYYCAKHYYYGGSYAMDYWGQGTSVTVSS
notes: anti-CD27 (M708) x anti-CD19; also called aCD27-aCD19
B2: C2177.CD19 bi-specific antibody (bispecific antibody)
chain: DIVLTQSPASLAVSLGQRATISCKASQSVDYAGDSYMNWYQQKPGQPPKLLIYAASNLESGIPARFSGSGSGTDFTLNIHPVEEEDAATYYCQQSNEDPYTFGGGTKLEIKGGGGSGGGGSGGGGSQVQLQQSGPELVKPGASVKISCKASGYAFSSSWMNWVKQRPGKGLEWIGRIYPGDGDTNYNGKFKGKATLTADKSSSTAYMQLSSLTSEDSAVYFCARSDYYGDYGFAYWGQGTLVTVSAGGGGSDIQMTQTTSSLSASLGDRVTISCRASQDISKYLNWYQQKPDGTVKLLIYHTSRLHSGVPSRFSGSGSGTDYSLTISNLEQEDIATYFCQQGNTLPYTFGGGTKLEITGGGGSGGGGSGGGGSEVKLQESGPGLVAPSQSLSVTCTVSGVSLPDYGVSWIRQPPRKGLEWLGVIWGSETTYYNSALKSRLTIIKDNSKSQVFLKMNSLQTDDTAIYYCAKHYYYGGSYAMDYWGQGTSVTVSS
notes: anti-CD27 (C2177) x anti-CD19; also called aCD27-aCD19
B3: M709.CD19 bi-specific antibody (bispecific antibody)
chain: DIVMTQSPDSLAVSLGERATINCKASQSVDYAGESFMNWYQQKPGQPPKLLIYAASNLESGVPDRFSGSGSGTDFTLTISSLQAEDVAVYYCQQSNEDPYTFGQGTKLEIKGGGGSGGGGSGGGGSEVQLVQSGAEVKKPGESLKISCKGSGYAFSSSWMNWVRQMPGKGLEWMGRIYAGDADTAYSPSFQGQVTISADKSISTAYLQWSSLKASDTAMYYCARSDYYGDYGFAYWGQGTLVTVSSGGGGSDIQMTQTTSSLSASLGDRVTISCRASQDISKYLNWYQQKPDGTVKLLIYHTSRLHSGVPSRFSGSGSGTDYSLTISNLEQEDIATYFCQQGNTLPYTFGGGTKLEITGGGGSGGGGSGGGGSEVKLQESGPGLVAPSQSLSVTCTVSGVSLPDYGVSWIRQPPRKGLEWLGVIWGSETTYYNSALKSRLTIIKDNSKSQVFLKMNSLQTDDTAIYYCAKHYYYGGSYAMDYWGQGTSVTVSS
notes: anti-CD27 (M709) x anti-CD19; also called aCD27-aCD19

The target of the experiment is T1, CD27-Z CLEAR (UniProt P26842 20-260; P20963 52-163).
T1 construct: also called CD27 CLEAR
T1 sequence (P26842 other isoform, or with tags, fused parts or gaps): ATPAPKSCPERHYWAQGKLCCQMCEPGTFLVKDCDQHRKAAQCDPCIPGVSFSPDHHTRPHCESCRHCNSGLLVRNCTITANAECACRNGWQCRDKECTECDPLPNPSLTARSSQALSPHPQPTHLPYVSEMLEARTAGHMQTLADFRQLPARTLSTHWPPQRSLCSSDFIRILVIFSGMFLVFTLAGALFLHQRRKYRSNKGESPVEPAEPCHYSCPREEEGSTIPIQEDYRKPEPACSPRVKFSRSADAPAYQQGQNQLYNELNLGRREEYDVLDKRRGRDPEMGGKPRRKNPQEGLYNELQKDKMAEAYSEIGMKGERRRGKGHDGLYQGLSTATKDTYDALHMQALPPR
The experiment can be described thus: flow cytometry, T cells co-electroporated with CD27-Z RNA and bi-specific antibody RNA, stained with anti-mouse IgG Fab (streptavidin APC) and anti-CD27 FITC; controls: CD27Z alone Q2 2.52 and Q3 9.39, NO EP Q2 0.089 and Q3 1.92. (A flow cytometer gives signals particle by particle.)
With B1, the “percent of cells CD27+ mIgG Fab+ (Q2)” value turned out to be 7.58 and the “percent of cells CD27- mIgG Fab+ (Q3)” value was found to be 18.8.
With B2, the “percent of cells CD27+ mIgG Fab+ (Q2)” value is 13.8 and the “percent of cells CD27- mIgG Fab+ (Q3)” value came to 84.2.
For B3, in that order: 0.35 and 52.2.
